Patent US20250073311A1, “DOSAGE REGIME” (ZEALAND PHARMA A/S, priority 2021, published 2025)
Numbered stars: 1 amine (or outer) side, 2 acyl side, 3 side chain; on linkers, the order of the positions; unused ones are H or OH. Square brackets hold non-standard residues; d marks the D form. Side chains are listed from the residue outwards. * marks the point of attachment. C20 diacid = O=C(O)CCCCCCCCCCCCCCCCCCC(=O)*; C18 diacid = O=C(O)CCCCCCCCCCCCCCCCC(=O)*; γGlu = O=C(O)[C@H](CCC(=O)[*:2])N[*:1]; Palmitoyl = CCCCCCCCCCCCCCCC(=O)*; AEEA = NCCOCCOCC(=O)O; Aib = CC(C)(N)C(=O)O; βAla = NCCC(=O)O

T1: human GLP-2 receptor (hGLP2-R) (human, UniProt O95838)
T1 sequence: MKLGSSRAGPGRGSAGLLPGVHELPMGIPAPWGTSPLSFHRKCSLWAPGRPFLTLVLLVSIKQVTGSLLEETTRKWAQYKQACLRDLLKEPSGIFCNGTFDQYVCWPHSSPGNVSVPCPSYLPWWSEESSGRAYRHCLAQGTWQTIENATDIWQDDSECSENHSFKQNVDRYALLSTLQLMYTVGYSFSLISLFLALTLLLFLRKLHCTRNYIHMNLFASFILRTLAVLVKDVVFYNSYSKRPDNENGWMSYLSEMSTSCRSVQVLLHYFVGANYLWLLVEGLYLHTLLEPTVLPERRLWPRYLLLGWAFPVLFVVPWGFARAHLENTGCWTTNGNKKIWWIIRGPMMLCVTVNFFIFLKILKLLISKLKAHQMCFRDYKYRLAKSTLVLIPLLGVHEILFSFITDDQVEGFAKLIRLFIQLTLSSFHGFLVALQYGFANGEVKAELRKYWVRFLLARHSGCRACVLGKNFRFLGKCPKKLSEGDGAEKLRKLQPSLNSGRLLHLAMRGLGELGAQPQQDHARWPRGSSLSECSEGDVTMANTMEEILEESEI

B1: Compound 31 (peptide)
peptide: H-H[Aib]EGSFTSELATILDK([γGlu-C18 diacid])QAARDFIAWLISHKITD-OH
SMILES: CC[C@H](C)[C@H](NC(=O)[C@H](Cc1ccccc1)NC(=O)[C@H](CC(=O)O)NC(=O)[C@H](CCCNC(=N)N)NC(=O)[C@H](C)NC(=O)[C@H](C)NC(=O)[C@H](CCC(N)=O)NC(=O)[C@H](CCCCNC(=O)CC[C@H](NC(=O)CCCCCCCCCCCCCCCCC(=O)O)C(=O)O)NC(=O)[C@H](CC(=O)O)NC(=O)[C@H](CC(C)C)NC(=O)[C@@H](NC(=O)[C@@H](NC(=O)[C@H](C)NC(=O)[C@H](CC(C)C)NC(=O)[C@H](CCC(=O)O)NC(=O)[C@H](CO)NC(=O)[C@@H](NC(=O)[C@H](Cc1ccccc1)NC(=O)[C@H](CO)NC(=O)CNC(=O)[C@H](CCC(=O)O)NC(=O)C(C)(C)NC(=O)[C@@H](N)Cc1c[nH]cn1)[C@@H](C)O)[C@@H](C)O)[C@@H](C)CC)C(=O)N[C@@H](C)C(=O)N[C@@H](Cc1c[nH]c2ccccc12)C(=O)N[C@@H](CC(C)C)C(=O)N[C@H](C(=O)N[C@@H](CO)C(=O)N[C@@H](Cc1c[nH]cn1)C(=O)N[C@@H](CCCCN)C(=O)N[C@H](C(=O)N[C@H](C(=O)N[C@@H](CC(=O)O)C(=O)O)[C@@H](C)O)[C@@H](C)CC)[C@@H](C)CC
B2: Compound 33 (peptide)
peptide: H-H[Aib]EGSFTSELATILDK([AEEA-γGlu-C18 diacid])QAARDFIAWLYQHKITD-OH
SMILES: CC[C@H](C)[C@H](NC(=O)[C@H](Cc1ccccc1)NC(=O)[C@H](CC(=O)O)NC(=O)[C@H](CCCNC(=N)N)NC(=O)[C@H](C)NC(=O)[C@H](C)NC(=O)[C@H](CCC(N)=O)NC(=O)[C@H](CCCCNC(=O)COCCOCCNC(=O)CC[C@H](NC(=O)CCCCCCCCCCCCCCCCC(=O)O)C(=O)O)NC(=O)[C@H](CC(=O)O)NC(=O)[C@H](CC(C)C)NC(=O)[C@@H](NC(=O)[C@@H](NC(=O)[C@H](C)NC(=O)[C@H](CC(C)C)NC(=O)[C@H](CCC(=O)O)NC(=O)[C@H](CO)NC(=O)[C@@H](NC(=O)[C@H](Cc1ccccc1)NC(=O)[C@H](CO)NC(=O)CNC(=O)[C@H](CCC(=O)O)NC(=O)C(C)(C)NC(=O)[C@@H](N)Cc1c[nH]cn1)[C@@H](C)O)[C@@H](C)O)[C@@H](C)CC)C(=O)N[C@@H](C)C(=O)N[C@@H](Cc1c[nH]c2ccccc12)C(=O)N[C@@H](CC(C)C)C(=O)N[C@@H](Cc1ccc(O)cc1)C(=O)N[C@@H](CCC(N)=O)C(=O)N[C@@H](Cc1c[nH]cn1)C(=O)N[C@@H](CCCCN)C(=O)N[C@H](C(=O)N[C@H](C(=O)N[C@@H](CC(=O)O)C(=O)O)[C@@H](C)O)[C@@H](C)CC
B3: Compound 29 (peptide)
peptide: H-H[Aib]EGSFTSELATILDK([γGlu-C18 diacid])QAARDFIAWLIKHKITD-OH
SMILES: CC[C@H](C)[C@H](NC(=O)[C@H](Cc1ccccc1)NC(=O)[C@H](CC(=O)O)NC(=O)[C@H](CCCNC(=N)N)NC(=O)[C@H](C)NC(=O)[C@H](C)NC(=O)[C@H](CCC(N)=O)NC(=O)[C@H](CCCCNC(=O)CC[C@H](NC(=O)CCCCCCCCCCCCCCCCC(=O)O)C(=O)O)NC(=O)[C@H](CC(=O)O)NC(=O)[C@H](CC(C)C)NC(=O)[C@@H](NC(=O)[C@@H](NC(=O)[C@H](C)NC(=O)[C@H](CC(C)C)NC(=O)[C@H](CCC(=O)O)NC(=O)[C@H](CO)NC(=O)[C@@H](NC(=O)[C@H](Cc1ccccc1)NC(=O)[C@H](CO)NC(=O)CNC(=O)[C@H](CCC(=O)O)NC(=O)C(C)(C)NC(=O)[C@@H](N)Cc1c[nH]cn1)[C@@H](C)O)[C@@H](C)O)[C@@H](C)CC)C(=O)N[C@@H](C)C(=O)N[C@@H](Cc1c[nH]c2ccccc12)C(=O)N[C@@H](CC(C)C)C(=O)N[C@H](C(=O)N[C@@H](CCCCN)C(=O)N[C@@H](Cc1c[nH]cn1)C(=O)N[C@@H](CCCCN)C(=O)N[C@H](C(=O)N[C@H](C(=O)N[C@@H](CC(=O)O)C(=O)O)[C@@H](C)O)[C@@H](C)CC)[C@@H](C)CC
B4: Compound 34 (peptide)
peptide: H-H[Aib]EGSFTSELATILDK([AEEA-AEEA-γGlu-C20 diacid])QAARDFIAWLKQHKITD-OH
SMILES: CC[C@H](C)[C@H](NC(=O)[C@H](Cc1ccccc1)NC(=O)[C@H](CC(=O)O)NC(=O)[C@H](CCCNC(=N)N)NC(=O)[C@H](C)NC(=O)[C@H](C)NC(=O)[C@H](CCC(N)=O)NC(=O)[C@H](CCCCNC(=O)COCCOCCNC(=O)COCCOCCNC(=O)CC[C@H](NC(=O)CCCCCCCCCCCCCCCCCCC(=O)O)C(=O)O)NC(=O)[C@H](CC(=O)O)NC(=O)[C@H](CC(C)C)NC(=O)[C@@H](NC(=O)[C@@H](NC(=O)[C@H](C)NC(=O)[C@H](CC(C)C)NC(=O)[C@H](CCC(=O)O)NC(=O)[C@H](CO)NC(=O)[C@@H](NC(=O)[C@H](Cc1ccccc1)NC(=O)[C@H](CO)NC(=O)CNC(=O)[C@H](CCC(=O)O)NC(=O)C(C)(C)NC(=O)[C@@H](N)Cc1c[nH]cn1)[C@@H](C)O)[C@@H](C)O)[C@@H](C)CC)C(=O)N[C@@H](C)C(=O)N[C@@H](Cc1c[nH]c2ccccc12)C(=O)N[C@@H](CC(C)C)C(=O)N[C@@H](CCCCN)C(=O)N[C@@H](CCC(N)=O)C(=O)N[C@@H](Cc1c[nH]cn1)C(=O)N[C@@H](CCCCN)C(=O)N[C@H](C(=O)N[C@H](C(=O)N[C@@H](CC(=O)O)C(=O)O)[C@@H](C)O)[C@@H](C)CC
B5: Compound 32 (peptide)
peptide: H-H[Aib]EGSFTSELATILDK([βAla-Palmitoyl])QAARDFIAWLQQHKITD-OH
SMILES: CCCCCCCCCCCCCCCC(=O)NCCC(=O)NCCCC[C@H](NC(=O)[C@H](CC(=O)O)NC(=O)[C@H](CC(C)C)NC(=O)[C@@H](NC(=O)[C@@H](NC(=O)[C@H](C)NC(=O)[C@H](CC(C)C)NC(=O)[C@H](CCC(=O)O)NC(=O)[C@H](CO)NC(=O)[C@@H](NC(=O)[C@H](Cc1ccccc1)NC(=O)[C@H](CO)NC(=O)CNC(=O)[C@H](CCC(=O)O)NC(=O)C(C)(C)NC(=O)[C@@H](N)Cc1c[nH]cn1)[C@@H](C)O)[C@@H](C)O)[C@@H](C)CC)C(=O)N[C@@H](CCC(N)=O)C(=O)N[C@@H](C)C(=O)N[C@@H](C)C(=O)N[C@@H](CCCNC(=N)N)C(=O)N[C@@H](CC(=O)O)C(=O)N[C@@H](Cc1ccccc1)C(=O)N[C@H](C(=O)N[C@@H](C)C(=O)N[C@@H](Cc1c[nH]c2ccccc12)C(=O)N[C@@H](CC(C)C)C(=O)N[C@@H](CCC(N)=O)C(=O)N[C@@H](CCC(N)=O)C(=O)N[C@@H](Cc1c[nH]cn1)C(=O)N[C@@H](CCCCN)C(=O)N[C@H](C(=O)N[C@H](C(=O)N[C@@H](CC(=O)O)C(=O)O)[C@@H](C)O)[C@@H](C)CC)[C@@H](C)CC
B6: Compound 30 (peptide)
peptide: H-H[Aib]EGSFTSELATILDK([γGlu-C18 diacid])QAARDFIAWLIRHKITD-OH
SMILES: CC[C@H](C)[C@H](NC(=O)[C@H](Cc1ccccc1)NC(=O)[C@H](CC(=O)O)NC(=O)[C@H](CCCNC(=N)N)NC(=O)[C@H](C)NC(=O)[C@H](C)NC(=O)[C@H](CCC(N)=O)NC(=O)[C@H](CCCCNC(=O)CC[C@H](NC(=O)CCCCCCCCCCCCCCCCC(=O)O)C(=O)O)NC(=O)[C@H](CC(=O)O)NC(=O)[C@H](CC(C)C)NC(=O)[C@@H](NC(=O)[C@@H](NC(=O)[C@H](C)NC(=O)[C@H](CC(C)C)NC(=O)[C@H](CCC(=O)O)NC(=O)[C@H](CO)NC(=O)[C@@H](NC(=O)[C@H](Cc1ccccc1)NC(=O)[C@H](CO)NC(=O)CNC(=O)[C@H](CCC(=O)O)NC(=O)C(C)(C)NC(=O)[C@@H](N)Cc1c[nH]cn1)[C@@H](C)O)[C@@H](C)O)[C@@H](C)CC)C(=O)N[C@@H](C)C(=O)N[C@@H](Cc1c[nH]c2ccccc12)C(=O)N[C@@H](CC(C)C)C(=O)N[C@H](C(=O)N[C@@H](CCCNC(=N)N)C(=O)N[C@@H](Cc1c[nH]cn1)C(=O)N[C@@H](CCCCN)C(=O)N[C@H](C(=O)N[C@H](C(=O)N[C@@H](CC(=O)O)C(=O)O)[C@@H](C)O)[C@@H](C)CC)[C@@H](C)CC

Molecular target: human glucagon-like peptide 1 receptor (GLP-1R) (human, UniProt P43220)
Assay: cell-based or functional assay

**Q.** For H-H[Aib]EGSFTSELATILDK([AEEA-AEEA-AEEA-iso‑Lys-C20 diacid])QAARDFIAWLIQQKITD-OH [Compound 35], which “EC50 GLP-1 (nM), cAMP AlphaScreen” value is on record?
**A.** Its value is 0.099 nM.

**Q.** For B1, which “EC50 GLP-1 (nM), cAMP AlphaScreen” value is on record?
**A.** Its value is 0.27 nM.

**Q.** B2 was tested. Which “EC50 GLP-1 (nM), cAMP AlphaScreen” value did it give?
**A.** The value was 0.85 nM.

**Q.** B3 was tested. Which “EC50 GLP-1 (nM), cAMP AlphaScreen” value did it give?
**A.** Its value is 0.31 nM.

**Q.** Which “EC50 GLP-1 (nM), cAMP AlphaScreen” value does the source give for B4 here?
**A.** The value was 0.28 nM.

**Q.** How did the “EC50 GLP-1 (nM), cAMP AlphaScreen” value turn out when B5 was run?
**A.** The value was 0.38 nM.

**Q.** How did the “EC50 GLP-1 (nM), cAMP AlphaScreen” value turn out when B6 was run?
**A.** The value was 0.31 nM.

Molecular target: T1, human GLP-2 receptor (hGLP2-R)
Assay: cell-based or functional assay

**Q.** Which “EC50 GLP-2 (nM), cAMP AlphaScreen” value does the source give for H-H[Aib]EGSFTSELATILDK([AEEA-AEEA-AEEA-iso‑Lys-C20 diacid])QAARDFIAWLIQQKITD-OH [Compound 35] here?
**A.** The value was 0.3 nM.

**Q.** For B1, which “EC50 GLP-2 (nM), cAMP AlphaScreen” value is on record?
**A.** Its value is 0.24 nM.

**Q.** For B2, which “EC50 GLP-2 (nM), cAMP AlphaScreen” value is on record?
**A.** The value was 0.072 nM.

**Q.** How did the “EC50 GLP-2 (nM), cAMP AlphaScreen” value turn out when B3 was run?
**A.** Its value is 0.29 nM.

**Q.** B4 was tested. Which “EC50 GLP-2 (nM), cAMP AlphaScreen” value did it give?
**A.** The value was 0.13 nM.

**Q.** How did the “EC50 GLP-2 (nM), cAMP AlphaScreen” value turn out when B5 was run?
**A.** The value was 0.46 nM.

**Q.** Which “EC50 GLP-2 (nM), cAMP AlphaScreen” value does the source give for B6 here?
**A.** Its value is 0.38 nM.
